Experimental findings from patent US20140087995A1 (published 2014) are described below.

Numbered stars: 1 amine (or outer) side, 2 acyl side, 3 side chain; on linkers, the order of the positions; unused ones are H or OH. Bridge positions count the residues as written; N and C are the ends. Square brackets hold non-standard residues; d marks the D form. Side chains are listed from the residue outwards. Ends that are not written are not given here. * marks the point of attachment. C20 diacid = O=C(O)CCCCCCCCCCCCCCCCCCC(=O)*; γGlu = O=C(O)[C@H](CCC(=O)[*:2])N[*:1]; AEEA = NCCOCCOCC(=O)O

The target in assay [1] is T1, human amylin receptor (amylin 3(a) receptor: human calcitonin receptor with RAMP-3) (human, UniProt P30988 25-474; O60896 24-148).
T1 construct: whole, on cells; Assay used cell membranes of the Amylin 3(a)/CRE-luc BHK cells, not intact cells; also called hAmylin-R; hAmylinR
T1 sequence (looked up) 1: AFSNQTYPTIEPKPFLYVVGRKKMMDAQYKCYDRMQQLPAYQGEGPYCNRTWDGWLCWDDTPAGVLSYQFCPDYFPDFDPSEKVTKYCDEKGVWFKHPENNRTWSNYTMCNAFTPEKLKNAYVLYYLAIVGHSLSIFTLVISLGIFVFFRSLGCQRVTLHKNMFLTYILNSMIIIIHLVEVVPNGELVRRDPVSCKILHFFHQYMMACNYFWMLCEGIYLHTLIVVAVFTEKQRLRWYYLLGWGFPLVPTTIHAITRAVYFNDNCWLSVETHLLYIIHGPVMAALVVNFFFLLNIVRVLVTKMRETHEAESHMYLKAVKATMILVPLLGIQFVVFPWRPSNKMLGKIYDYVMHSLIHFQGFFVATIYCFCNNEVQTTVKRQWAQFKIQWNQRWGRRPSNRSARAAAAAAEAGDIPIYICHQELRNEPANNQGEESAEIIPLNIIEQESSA
T1 sequence (looked up) 2: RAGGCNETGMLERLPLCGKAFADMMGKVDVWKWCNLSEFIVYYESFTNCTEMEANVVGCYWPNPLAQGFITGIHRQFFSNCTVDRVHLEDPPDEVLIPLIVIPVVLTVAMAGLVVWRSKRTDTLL
Nature of the assay: SPA competition with 125I-rat amylin on membranes of BHK cells with human calcitonin receptor and RAMP-3 (Assay V). On the procedure:
The binding assay was performed using scintillation proximity assay (SPA) beads (RPNQ0001) from PerkinElmer and cell membranes from the Amylin 3(a)/CRE-luc cells (as described in Assay (II)) were used. Membranes were prepared in the following way; the cells were rinsed with PBS and incubated with Versene for approximately 5 min before harvesting. The cells were flushed with PBS and the cell-suspension was centrifuged for 5 min at 1000 rpm. Cells were homogenized (ultrathurrax) in a buffer containing 20 mM Na-HEPES and 10 mM EDTA (pH 7.4) and centrifuged at 20.000 rpm for 15 min. The resulting pellet was resuspended, homogenized and centrifuged (20.000 rpm, 15 min) in a buffer containing 20 mM Na-HEPES and 0.1 mM EDTA (pH 7.4, buffer 2). The resulting pellet was resuspended in buffer 2 and protein concentration was measured (BCA protein Assay, Pierce). The homogenate was kept cold during the whole procedure. The membranes were kept at −80° C. until use. The assay was performed in a 384 well Optiplate (PerkinElmer) in a total volume of 40 ul. Membranes were mixed with SPA beads. Final concentration of membranes 35 ng/μL final and SPA beads was 0.05 mg/well. Test-compounds were dissolved in DMSO and further diluted in assay buffer (50 mM Hepes, pH 7.4, 1 mM CaCl2, 5 mM MgCl₂, 0.1% OA and 0.02% Tween20). […] The final mixture was incubated with shaking at 400 rpm for 120 min at 25° C. prior to centrifugation (1500 rpm, 10 min). Samples were analyzed on TopCounter™ (Packard). The IC₅₀ was calculated using (one site binding competition analysis) GraphPad Prism5 as a measure of receptor affinity.

The target of assay [2] is T2, human calcitonin receptor (human, UniProt P30988 25-474).
T2 construct: whole, on cells; Assay used cell membranes, not intact cells; also called hCTR; hCT
T2 sequence (looked up): T1 sequence (looked up) 1
Nature of the assay: ratio IC50 hCTR / IC50 hAmylin-R (reference: human amylin receptor), SPA competition assays. The protocol:
The resulting pellet was resuspended, homogenized and centrifuged (20.000 rpm, 15 min) in a buffer containing 20 mM Na-HEPES and 0.1 mM EDTA (pH 7.4, buffer 2). The resulting pellet was resuspended in buffer 2 and protein concentration was measured (BCA protein Assay, Pierce). The homogenate was kept cold during the whole procedure. The membranes were kept at −80° C. until use. The assay was performed in a 384 well Optiplate (PerkinElmer) in a total volume of 40 ul. Membranes were mixed with SPA beads. Final concentration of membranes 35 ng/μL final and SPA beads was 0.05 mg/well. Test-compounds were dissolved in DMSO and further diluted in assay buffer (50 mM Hepes, pH 7.4, 1 mM CaCl2, 5 mM MgCl₂, 0.1% OA and 0.02% Tween20). […] The final mixture was incubated with shaking at 400 rpm for 120 min at 25° C. prior to centrifugation (1500 rpm, 10 min). Samples were analyzed on TopCounter™ (Packard). The IC₅₀ was calculated using (one site binding competition analysis) GraphPad Prism5 as a measure of receptor affinity.
Membranes were prepared in the following way; the cells were rinsed with PBS and incubated with Versene for approximately 5 min before harvesting. The cells were flushed with PBS and the cell-suspension was centrifuged for 5 min at 1000 rpm. Cells were homogenized (Ultrathurrax) in a buffer containing 20 mM Na-HEPES and 10 mM EDTA (pH 7.4) and centrifuged at 20.000 rpm for 15 min. The resulting pellet was resuspended, homogenized and centrifuged (20.000 rpm, 15 min) in a buffer containing 20 mM Na-HEPES and 0.1 mM EDTA (pH 7.4, buffer 2). The resulting pellet was resuspended in buffer 2 and protein concentration was measured (BCA protein Assay, Pierce). The homogenate was kept cold during the whole procedure. The membranes were kept at −80° C. until use. Assay was performed in a 384 well Optiplate (PerkinElmer) in a total volume of 40 ul. Membranes were mixed with SPA beads.

For assay [3], the target named is T2, human calcitonin receptor. Briefly: SPA competition with 125I-calcitonin on membranes of BHK cells with human calcitonin receptor (Assay VII). On the procedure: Membranes were prepared in the following way; the cells were rinsed with PBS and incubated with Versene for approximately 5 min before harvesting. The cells were flushed with PBS and the cell-suspension was centrifuged for 5 min at 1000 rpm. Cells were homogenized (Ultrathurrax) in a buffer containing 20 mM Na-HEPES and 10 mM EDTA (pH 7.4) and centrifuged at 20.000 rpm for 15 min. The resulting pellet was resuspended, homogenized and centrifuged (20.000 rpm, 15 min) in a buffer containing 20 mM Na-HEPES and 0.1 mM EDTA (pH 7.4, buffer 2). The resulting pellet was resuspended in buffer 2 and protein concentration was measured (BCA protein Assay, Pierce). The homogenate was kept cold during the whole procedure. The membranes were kept at −80° C. until use. Assay was performed in a 384 well Optiplate (PerkinElmer) in a total volume of 40 ul. Membranes were mixed with SPA beads. Final concentration of membranes 35 ng/μL final and Final concentration of SPA beads was 0.05 mg/well. Test-compounds were dissolved in DMSO and further diluted in assay buffer (50 mM Hepes, pH 7.4, 1 mM CaCl2, 5 mM MgCl₂, 0.1% OA and 0.02% Tween20). […] The final mixture was incubated for 120 min with shaking at 400 rpm at 25° C. prior to centrifugation (1500 rpm, 10 min). Samples were analyzed on TopCounter™ (Packard). The […] was calculated using (one site binding competition analysis) GraphPad Prism5 as a measure of receptor affinity.

B1: N^ε1-[2-[2-[2-[[2-[2-[2-[[(4S)-4-carboxy-4-(19-carboxynonadecanoylamino)butanoyl]amino]ethoxy]ethoxy]acetyl]amino]ethoxy]ethoxy]acetyl]-[Arg17,Pro21,Pro27,Pro34 … (peptide)
peptide: K([AEEA-AEEA-γGlu-C20 diacid])CNTATCATQRLANFLRHSSPNFGAIPSSTNVGPNTY-NH2
modifications: disulfide 2-7; N-terminus assumed
SMILES: CC[C@H](C)[C@H](NC(=O)[C@H](C)NC(=O)CNC(=O)[C@H](Cc1ccccc1)NC(=O)[C@H](CC(N)=O)NC(=O)[C@@H]1CCCN1C(=O)[C@H](CO)NC(=O)[C@H](CO)NC(=O)[C@H](Cc1c[nH]cn1)NC(=O)[C@H](CCCNC(=N)N)NC(=O)[C@H](CC(C)C)NC(=O)[C@H](Cc1ccccc1)NC(=O)[C@H](CC(N)=O)NC(=O)[C@H](C)NC(=O)[C@H](CC(C)C)NC(=O)[C@H](CCCNC(=N)N)NC(=O)[C@H](CCC(N)=O)NC(=O)[C@@H](NC(=O)[C@H](C)NC(=O)[C@@H]1CSSC[C@H](NC(=O)[C@@H](N)CCCCNC(=O)COCCOCCNC(=O)COCCOCCNC(=O)CC[C@H](NC(=O)CCCCCCCCCCCCCCCCCCC(=O)O)C(=O)O)C(=O)N[C@@H](CC(N)=O)C(=O)N[C@@H]([C@@H](C)O)C(=O)N[C@@H](C)C(=O)N[C@@H]([C@@H](C)O)C(=O)N1)[C@@H](C)O)C(=O)N1CCC[C@H]1C(=O)N[C@@H](CO)C(=O)N[C@@H](CO)C(=O)N[C@H](C(=O)N[C@@H](CC(N)=O)C(=O)N[C@H](C(=O)NCC(=O)N1CCC[C@H]1C(=O)N[C@@H](CC(N)=O)C(=O)N[C@H](C(=O)N[C@@H](Cc1ccc(O)cc1)C(N)=O)[C@@H](C)O)C(C)C)[C@@H](C)O
notes: also called compound 98
As usually defined, the IC50 is the midpoint of a concentration-inhibition curve. For the molecule B1, the values for the IC50 in assay [1] and in assay [3] were 0.091 nM and 6.74 nM, respectively. The “Ratio hCT/hAmylin binding” value in assay [2] came out at 74.1.

B2: N^ε1-[(4S)-4-carboxy-4-[[(4S)-4-carboxy-4-(19-carboxynonadecanoylamino)butanoyl]amino]butanoyl]-[D-Asp14,Arg17,Pro21,Pro27,Arg35]-h-amylin (peptide)
peptide: K([γGlu-γGlu-C20 diacid])CNTATCATQRLA[dD]FLRHSSPNFGAIPSSTNVGSRTY-NH2
modifications: disulfide 2-7; N-terminus assumed
SMILES: CC[C@H](C)[C@H](NC(=O)[C@H](C)NC(=O)CNC(=O)[C@H](Cc1ccccc1)NC(=O)[C@H](CC(N)=O)NC(=O)[C@@H]1CCCN1C(=O)[C@H](CO)NC(=O)[C@H](CO)NC(=O)[C@H](Cc1c[nH]cn1)NC(=O)[C@H](CCCNC(=N)N)NC(=O)[C@H](CC(C)C)NC(=O)[C@H](Cc1ccccc1)NC(=O)[C@@H](CC(=O)O)NC(=O)[C@H](C)NC(=O)[C@H](CC(C)C)NC(=O)[C@H](CCCNC(=N)N)NC(=O)[C@H](CCC(N)=O)NC(=O)[C@@H](NC(=O)[C@H](C)NC(=O)[C@@H]1CSSC[C@H](NC(=O)[C@@H](N)CCCCNC(=O)CC[C@H](NC(=O)CC[C@H](NC(=O)CCCCCCCCCCCCCCCCCCC(=O)O)C(=O)O)C(=O)O)C(=O)N[C@@H](CC(N)=O)C(=O)N[C@@H]([C@@H](C)O)C(=O)N[C@@H](C)C(=O)N[C@@H]([C@@H](C)O)C(=O)N1)[C@@H](C)O)C(=O)N1CCC[C@H]1C(=O)N[C@@H](CO)C(=O)N[C@@H](CO)C(=O)N[C@H](C(=O)N[C@@H](CC(N)=O)C(=O)N[C@H](C(=O)NCC(=O)N[C@@H](CO)C(=O)N[C@@H](CCCNC(=N)N)C(=O)N[C@H](C(=O)N[C@@H](Cc1ccc(O)cc1)C(N)=O)[C@@H](C)O)C(C)C)[C@@H](C)O
Regarding B2, the results for the half-maximal inhibitory concentration (IC50) in assay [1] and in assay [3] were 0.365 nM and 112 nM, respectively.

B3: N^ε1-[2-[2-[2-(19-carboxynonadecanoylamino)ethoxy]ethoxy]acetyl]-[Arg17,Pro21,Pro27,His34]-h-amylin (peptide)
peptide: K([AEEA-C20 diacid])CNTATCATQRLANFLRHSSPNFGAIPSSTNVGHNTY-NH2
modifications: disulfide 2-7; N-terminus assumed
SMILES: CC[C@H](C)[C@H](NC(=O)[C@H](C)NC(=O)CNC(=O)[C@H](Cc1ccccc1)NC(=O)[C@H](CC(N)=O)NC(=O)[C@@H]1CCCN1C(=O)[C@H](CO)NC(=O)[C@H](CO)NC(=O)[C@H](Cc1c[nH]cn1)NC(=O)[C@H](CCCNC(=N)N)NC(=O)[C@H](CC(C)C)NC(=O)[C@H](Cc1ccccc1)NC(=O)[C@H](CC(N)=O)NC(=O)[C@H](C)NC(=O)[C@H](CC(C)C)NC(=O)[C@H](CCCNC(=N)N)NC(=O)[C@H](CCC(N)=O)NC(=O)[C@@H](NC(=O)[C@H](C)NC(=O)[C@@H]1CSSC[C@H](NC(=O)[C@@H](N)CCCCNC(=O)COCCOCCNC(=O)CCCCCCCCCCCCCCCCCCC(=O)O)C(=O)N[C@@H](CC(N)=O)C(=O)N[C@@H]([C@@H](C)O)C(=O)N[C@@H](C)C(=O)N[C@@H]([C@@H](C)O)C(=O)N1)[C@@H](C)O)C(=O)N1CCC[C@H]1C(=O)N[C@@H](CO)C(=O)N[C@@H](CO)C(=O)N[C@H](C(=O)N[C@@H](CC(N)=O)C(=O)N[C@H](C(=O)NCC(=O)N[C@@H](Cc1c[nH]cn1)C(=O)N[C@@H](CC(N)=O)C(=O)N[C@H](C(=O)N[C@@H](Cc1ccc(O)cc1)C(N)=O)[C@@H](C)O)C(C)C)[C@@H](C)O
notes: also called compound 91
In the case of B3, the half-inhibitory concentration (IC50) in assay [1] was 0.119 nM; in assay [3], 12 nM. Besides, the “Ratio hCT/hAmylin binding” value in assay [2] was 101.
